Test results published in the supplement of paper PMC12042874.
± gives the uncertainty stated by the source.

experiment: amyloid nucleation score (Sup35N fusion, yeast selection) (log enrichment); library NNK1; higher = more nucleation; inactive = no reads after selection
Method in brief: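 Plasmid inserts were Illumina-sequenced at input and output from psi-negative yeast expressing Sup35N fused to peptides of 20 random codons. The yeast were induced with 100 μM copper sulfate for 24 hours and grown 7 days at 30°C on medium lacking adenine and uracil, and sequences with under 100 input reads were excluded. Nucleation score is the DiMSum log enrichment of output over input reads, centred on the mode score of non-aggregating sequences.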

Substance | amyloid nucleation score
GGTNFKDDDV | 0.683 ± 1
GGTRDVFEFHNSDTPDAVYQ | -0.043 ± 0.3
GGVGLDWLEVVFVCTRGQYD | inactive
GGYWWQDRRHGPILYLVFWA | 0.552 ± 0.34
GHHLSVWRSNSCSCVWSITD | -0.184 ± 0.4
GHLENPFDERASCWRITADG | 1.25 ± 0.74
GHTVVSSWALNFEYGFQLGY | 0.05 ± 0.5
GIGFNHVSHLVKENS | -0.192 ± 0.97
GIHSLFMVAIYFAYWLRKWV | -0.877 ± 1.6
GIISASSVNTQRWTSGTNTC | inactive
GIKFNWENLARVLESNVFF | 1.53 ± 0.46
GILFVFFQYF | 1.95 ± 0.15
GIRMRGVSDLSLLRM | 0.163 ± 0.77
GIRMRSKNYGSWWFPLLYGE | 0.827 ± 0.84
GIRPPGKCMGWYLHMKFQSS | -0.391 ± 0.59
GISGLVLSYGADSGPGTWGK | -0.63 ± 0.42
GIVGGDQYMLFNLYVGFSYP | 1.45 ± 0.15
GIVRVKSTCERSPDSATYDL | -0.205 ± 0.91
GIWIRVSLAMRVTTSRRLGN | 2.57 ± 0.17
GIYNLHQFTCLFEAAAIACD | -0.478 ± 0.79
GIYSFGLCVGDIS | -0.623 ± 0.34
GKERCDRMNKTLFLTFSYII | -0.281 ± 0.71
GKHSLSPVYLWYGNNY | 0.707 ± 0.52
GKKAYALGMSYLESCL | 1.37 ± 0.73
GKLSDINCLYSSDSLGCLGL | 0.815 ± 0.9

Substance | amyloid nucleation score
GKMLFRGSGIRPCGALIGVK | -0.561 ± 1.1
GKRLQ | -0.249 ± 1.2
GKRSDIVLMLLIEMGHMLSQ | 3.1 ± 0.13
GKTRK | -0.782 ± 1.7
GLDCVRGNQWVNQGVL | 2.32 ± 0.15
GLEDRNRWKVWFITLCRGIA | 0.71 ± 1.1
GLETNNLARLVCGSRCFLSD | -0.894 ± 2.4
GLFFNNKYA | 0.54 ± 0.84
GLFTVNDV | 0.374 ± 0.36
GLGLCRVE | -0.373 ± 0.38
GLGTAYIGLCWHTIWHAAGV | 1.46 ± 0.16
GLLGGIGRRRTMG | -0.643 ± 0.46
GLLIGDT | 0.437 ± 0.48
GLMLHCGGLCWLLVVV | -0.539 ± 0.41
GLNSDGLWLLSLNTRKSRAH | -0.349 ± 1.1
GLRTLEPYRYVIIMVPGQVA | -0.164 ± 0.68
GLSTMQCVNICFWSYVTW | 1.37 ± 0.26
GLSVFSCQFFFNSTAFFSVN | 6.061 ± 0.06
GLSWGIFALDTRSPGILRSV | -0.436 ± 0.35
GLTKYV | -0.462 ± 0.28
GLVFWNIYCRNFYLL | 6.83 ± 0.078
GLVLTIWHLRTAEERIVYRA | 1.58 ± 0.26
GLVVIGRSCDDYESIMTRSM | 0.171 ± 0.41
GLWHAC | inactive
GLYIFYLSNWLFHPRF | 0.339 ± 0.43

Substance | amyloid nucleation score
GLYSTGNFDVGRSLCDHMGS | -0.492 ± 1.1
GLYYSFRFYTFSVYRALRGS | -0.392 ± 1.1
GMCPLNRNGGFGNGVVEGVV | 0.166 ± 1.6
GMDCH | -0.175 ± 0.25
GMLISTSIMHNES | 0.164 ± 0.4
GMQIKYNLCSRKTLVENGIS | 3.48 ± 0.12
GMSGYKKFCSGIWWSLNQCS | 0.408 ± 0.42
GNICSTLAINVGLIFSKECV | inactive
GNLLRTSIDRLLYSWSTIVV | -0.187 ± 0.46
GNLVCGCVVLQIMHIERGMA | 7.481 ± 0.046
GNMSPFKNLTFAEQLDAPRD | 0.016 ± 1.2
GNVIGGNMVVQWYSFCTVCV | 6.342 ± 0.062
GNVSDYVVMIGVMVSLPCLI | -0.222 ± 0.56
GNVYVKISVTVFADDYVLRV | 3.81 ± 0.11
GNYSG | inactive
GNYSIARGLKNDKWCFFSSY | -0.234 ± 1.6
GNYTS | -0.894 ± 0.59
GPALTHTHS | 0.306 ± 0.63
GPDINSCRSCFSWYIVWFLV | 0.318 ± 0.7
GPSLGVIFKEIWFYYG | 0.541 ± 0.3
GQAWCTLTCRGTGPSQLGWV | -0.508 ± 0.57
GQDSGSSNVFSSCICNLHVF | 7.715 ± 0.046
GQFEHGVGVQQSSGSTQRWL | -1.21 ± 2.4
GQFSRSCGTVHNQSVYRRCL | 1.5 ± 0.48
GQKVMIAHGTQETIHGGCCG | -0.275 ± 0.49

Substance | amyloid nucleation score
GQNLGRSRLGNVYRGPCGNC | -0.095 ± 1.1
GQQLCVIFYSTCDSYKMLSD | 3.26 ± 0.089
GQSYRRNIMCTSFLWLGNRN | 1.05 ± 0.53
GQTVNCNATYFSVTIVGIVG | 2.8 ± 0.13
GRCLCGLVDDYFYNAYWVLP | -0.555 ± 0.35
GRECLRCTFKMVGWVATEIA | -0.521 ± 0.71
GRGQWQPAFTKLPYLILSVV | -0.152 ± 0.94
GRGRKVYLVDLGSGL | -0.285 ± 0.53
GRIYLVWVDSTCRRVCKTLV | 0.082 ± 0.29
GRNTGFFHFLWLFRYVTLVM | -1.58 ± 1.7
GRPFALRWLDLGLLTDDPKG | -0.164 ± 0.32
GRSFYNCPPLRIHCLCIMEV | 0.557 ± 0.68
GRSLY | -0.413 ± 0.46
GSCGYSTVVDVVCYLDLLLI | 0.131 ± 0.43
GSELGIKRTLSLFICLWIIG | -0.731 ± 0.36
GSFYSGI | 1.6 ± 0.76
GSGKCVPGDTELAILGLKR | 0.299 ± 0.7
GSIERFTFISVYYRLTPLSG | -0.035 ± 0.54
GSKGMGSERQVECFTKI | -0.505 ± 0.37
GSLLLMGRTMDVYQNRHFFH | 0.651 ± 0.28
GSLPIRNTFTWGEL | inactive
GSNDPSVLTAVVLMLLKHRG | 2.04 ± 0.35
GSNGMRGLRWGL | -0.485 ± 0.31
GSRSLLQR | -1.06 ± 1.2
GSRYHEECRWTCREAPTDAR | -1.07 ± 1.6

Substance | amyloid nucleation score
GSVCRCSDAPVSFRVGNSVG | -0.078 ± 0.27
GSVLKLYRGITHSRNERRGP | -0.171 ± 1.1
GSWATVWVVKDPEVADCCGL | -1.53 ± 1.6
GSWNALRLRCVNVVRTGVMN | -0.496 ± 0.59
GSYGLDGILDQWTPLHSLGG | 0.64 ± 0.46
GSYRLKCCTYLVGKY | 1.73 ± 0.28
GTCYGCLLILVCSLFGSTTG | 1.12 ± 0.66
GTNFS | 0.498 ± 0.97
GTRVR | 1.51 ± 0.48
GTSSYMV | -0.01 ± 0.23
GTVSDGMSVIRVKGMRWSDY | 1.13 ± 0.73
GTYFSGIVVVFLVGVLAR | -0.207 ± 0.49
GVDGYDLRGLSWEVAKEFKS | 0.73 ± 0.67
GVGIFAIYWFTMPHVRPRVI | -1.13 ± 1
GVGVLLSYSELFDSTIEGPT | 0.664 ± 0.59
GVISAGYFAGYETKLLLKGD | 0.983 ± 0.97
GVKFNSDMSCQFRRVLVEIA | -0.057 ± 1.7
GVKSQYALNKLGCGELWLRL | 0.364 ± 0.28
GVMGYFVC | -0.405 ± 0.27
GVMRKNMNKAWFTRDIDSF | 0.752 ± 0.41
GVRETHLPSMLRRTALRFTF | 0.026 ± 0.36
GVRMLGFVRV | 0.261 ± 0.2
GVVACLFFWVRAFFYR | inactive
GVVSKQSYVRITLGTGPSGE | 0.476 ± 1.2
GVVTLFTEYSSEPCRCGFRQ | -0.21 ± 0.53

Substance | amyloid nucleation score
GVWGQFQVSILWRHKCDLSG | inactive
GVYSGVVSRSL | -0.21 ± 0.34
GWHLHFC | 0.492 ± 0.22
GWMNCHNSTWRVGQALSSSR | 0.282 ± 0.48
GWNHWADTSGTLGK | 0.502 ± 0.73
GWRSGVWLGSV | -1.32 ± 0.77
GWTIKSSYYG | -0.906 ± 1.4
GWWGHGFALRSFVLIAHLDV | 0.06 ± 0.72
GWYFPILRDLRNVGGVF | -0.677 ± 1.1
GWYFYG | 0.702 ± 0.32
GYARILKDLGYPFPYDLQHL | inactive
GYENGDGDERD | -0.403 ± 1.2
GYGAKWVLVVS | 1.25 ± 0.47
GYGIGDGRVHTQNKVGCYGG | 1.33 ± 0.66
GYIDFCFLWD | -0.333 ± 0.21
GYLQR | 0.158 ± 0.59
GYPIDGMYKRAALVRMDICF | 0.718 ± 0.92
GYPWVV | 0.993 ± 0.55
GYSCRVIWNTNWTALFT | inactive
GYSGGKLLVGGTYTRIV | 0.243 ± 0.43
GYWGPVFSGRCIPVNNK | -0.186 ± 1.5
HAAEGIDESRKHSRHLIIVW | 0.029 ± 0.34
HALMTARAFTCPWRMVVKFQ | 0.897 ± 0.61
HANISLRSWRFRYHCREFKG | 1.47 ± 0.2
HANLGFS | -0.742 ± 0.78

Substance | amyloid nucleation score
HCHFIFGGMIGS | -0.144 ± 1.2
HCINGCYNSEDVIIVDLLAF | inactive
HCPCGCYTPFLAKRMSSVLV | 0.362 ± 0.26
HCRYMMSRVILSCILARPQ | 2.55 ± 0.15
HDLEIPICTWEYSVVIQGLQ | 0.005 ± 1.4
HEFHRLDVAVYRG | -0.132 ± 0.29
HEPFDSDHTVARRETCLFGR | -0.928 ± 0.52
HEVWH | -0.379 ± 0.55
HFCFGC | 7.377 ± 0.062
HFGAYLVVM | -0.299 ± 0.35
HFNYNNTSMFSLTHSWHGIM | 4.71 ± 0.089
HFRDCVPYFMVSRSRGELGE | -0.42 ± 0.75
HFYFIYCSQIQVFKQV | 7.422 ± 0.065
HGIIHFVLQMW | 1.85 ± 0.49
HGLAYCGRQLFGARFILRYR | 0.255 ± 0.23
HGRLTYSDVVNVRTFPGLMK | -0.232 ± 0.25
HGRQE | 0.184 ± 1
HGSIQSV | inactive
HGYFSNMWSYRRYQLLKLSP | 0.664 ± 0.77
HHLVLQRD | 0.347 ± 0.28
HHMRCLGTLNNLCKCCFEER | 3.41 ± 0.11
HHNNDSDYKLREN | 0.116 ± 0.48
HHSYKYCKLAFWTRSSKWNR | 0.7 ± 0.71
